The results in this text go back to paper PMC6175577, “BRCT domains of the DNA damage checkpoint proteins TOPBP1/Rad4 display distinct specificities for phosphopeptide ligands” (eLife, 2018).

Assay in all cases: fluorescence polarisation
In experiment [1] the target is T1, Mdb1 pT113 fluorescein-labelled phosphopeptide.
T1 chain: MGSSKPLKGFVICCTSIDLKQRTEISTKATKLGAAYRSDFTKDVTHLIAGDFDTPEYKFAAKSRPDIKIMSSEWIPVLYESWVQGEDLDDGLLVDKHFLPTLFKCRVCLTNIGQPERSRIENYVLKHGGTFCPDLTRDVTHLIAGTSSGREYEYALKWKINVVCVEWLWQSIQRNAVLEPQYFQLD
The conditions noted are these: chain shown with the change; point at 40 µM protein; parent: est. 140; read off a plot.

Experiment [2] concerns the target T2, Treslin pT969 fluorescein-labelled phosphopeptide.
T2 chain: GYGLTKSVAETPVHKQIS
The conditions noted are these: for response: chain shown with the change, point at 40 µM protein, parent: est. 70, read off a plot.

For experiment [3], the target named is T3, Treslin pS1001 fluorescein-labelled phosphopeptide.
T3 chain: GYGDIGVVEESPEKGDEI
As to conditions: for response: chain shown with the change, point at 40 µM protein, parent: est. 83, read off a plot; for Kd: chain shown with the change;, parent: 0.60 ± 0.03 µM.

The target of experiment [4] is T4, Treslin pT969 fluorescein-labelled phosphopeptide.
T4 chain: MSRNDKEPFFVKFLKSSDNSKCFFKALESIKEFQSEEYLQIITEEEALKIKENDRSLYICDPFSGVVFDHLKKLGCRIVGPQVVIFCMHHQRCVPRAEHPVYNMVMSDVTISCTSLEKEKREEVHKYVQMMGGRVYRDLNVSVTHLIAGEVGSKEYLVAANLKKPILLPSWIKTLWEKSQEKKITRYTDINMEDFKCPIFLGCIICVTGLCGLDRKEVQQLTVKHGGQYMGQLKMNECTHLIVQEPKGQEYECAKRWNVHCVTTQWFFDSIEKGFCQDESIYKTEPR
As to conditions: chain shown with the change; point at 40 µM protein; parent: est. 70; read off a plot.

Experiment [5] addresses T5, Mdb1 pT113 fluorescein-labelled phosphopeptide.
T5 chain: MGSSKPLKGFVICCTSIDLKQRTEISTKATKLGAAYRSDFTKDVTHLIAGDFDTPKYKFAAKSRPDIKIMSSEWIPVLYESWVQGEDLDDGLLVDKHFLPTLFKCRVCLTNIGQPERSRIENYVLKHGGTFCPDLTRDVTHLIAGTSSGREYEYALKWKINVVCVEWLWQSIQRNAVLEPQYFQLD
As to conditions: chain shown with the change; point at 40 µM protein; parent: est. 140; read off a plot.

The target of experiment [6] is T6, Treslin pS1001 fluorescein-labelled phosphopeptide.
T6 chain: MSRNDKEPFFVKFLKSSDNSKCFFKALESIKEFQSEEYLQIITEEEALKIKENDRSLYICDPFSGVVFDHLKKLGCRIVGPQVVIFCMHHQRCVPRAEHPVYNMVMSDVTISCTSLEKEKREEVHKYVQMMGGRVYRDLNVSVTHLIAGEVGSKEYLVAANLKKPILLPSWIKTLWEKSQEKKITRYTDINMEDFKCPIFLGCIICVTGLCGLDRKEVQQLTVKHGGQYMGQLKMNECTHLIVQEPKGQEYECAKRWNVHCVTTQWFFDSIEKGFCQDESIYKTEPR
The conditions noted are these: chain shown with the change; point at 40 µM protein; parent: est. 83; read off a plot.

For GYGGVMTVPNTPQKPNLQ [Rad4-BRCT1,2 segment, wild type (recombinant, fluorescence polarisation), P32372 K56E; K151E], the response in experiment [1] came out at 30 millidegrees.

B1: TOPBP1-BRCT0,1,2 segment, wild type (recombinant, fluorescence polarisation) K250E (protein)
chain: MSRNDKEPFFVKFLKSSDNSKCFFKALESIKEFQSEEYLQIITEEEALKIKENDRSLYICDPFSGVVFDHLKKLGCRIVGPQVVIFCMHHQRCVPRAEHPVYNMVMSDVTISCTSLEKEKREEVHKYVQMMGGRVYRDLNVSVTHLIAGEVGSKKYLVAANLKKPILLPSWIKTLWEKSQEKKITRYTDINMEDFKCPIFLGCIICVTGLCGLDRKEVQQLTVKHGGQYMGQLKMNECTHLIVQEPKGQEYECAKRWNVHCVTTQWFFDSIEKGFCQDESIYKTEPR
As to B1, the response in experiment [2] is 30 millidegrees; in experiment [3], 41 millidegrees. Besides, in experiment [3], the Kd stood at 350 nM.

B2: TOPBP1-BRCT0,1,2 segment, wild type (recombinant, fluorescence polarisation) K155E (protein)
chain: MSRNDKEPFFVKFLKSSDNSKCFFKALESIKEFQSEEYLQIITEEEALKIKENDRSLYICDPFSGVVFDHLKKLGCRIVGPQVVIFCMHHQRCVPRAEHPVYNMVMSDVTISCTSLEKEKREEVHKYVQMMGGRVYRDLNVSVTHLIAGEVGSKEYLVAANLKKPILLPSWIKTLWEKSQEKKITRYTDINMEDFKCPIFLGCIICVTGLCGLDRKEVQQLTVKHGGQYMGQLKMNECTHLIVQEPKGQKYECAKRWNVHCVTTQWFFDSIEKGFCQDESIYKTEPR
With B2, the figures for the response in experiment [2] and in experiment [3] were 46 millidegrees and 68 millidegrees, respectively. Besides, the Kd in experiment [2] (chain shown with the change;, parent: 0.94 ± 0.06 µM) was 1000 nM; in experiment [3], 730 nM.
On to GYGLTKSVAETPVHKQIS, for which the response in experiment [4] was 0 millidegrees.
Regarding GYGGVMTVPNTPQKPNLQ [Rad4-BRCT1,2 segment, wild type (recombinant, fluorescence polarisation), P32372 K151E], the response in experiment [5] turned out to be 92 millidegrees.
Take GYGDIGVVEESPEKGDEI: the response in experiment [6] came out at 12 millidegrees.
